According to PMC10083539, “Structural insights into plasmalemma vesicle-associated protein (PLVAP): Implications for vascular endothelial diaphragms and fenestrae” (Proceedings of the National Academy of Sciences of the …, 2023):

How the values were obtained:
[1] = biological target: the molecule itself; assay: crystal structure; PLVAP CC1; crystal form I (P212121, 0.2 M sodium malonate pH 5.0, 20% PEG3350, sulfur SAD) and crystal form II (I212121, 0.1 M sodium acetate pH 5.0, 15% PEG 4000), 21 °C
[2] = biological target: T1, hGH fusion with PLVAP ECD from amino acid 143, C-terminal deletion G (fusion protein G of Fig. 9) (Mus musculus, UniProt Q91VC4); assay: far-Western, overlay or dot blot; immunoblot: hGH-PLVAP deletion fusions in conditioned medium resolved by SDS-PAGE, blots probed with mAb MECA-32 and rabbit anti-hGH, fluorescent secondary antibodies; conditions: one partner purified
T1 construct: PLVAP, mouse; N terminus at amino acid 143 (QEQLKE...); Limit may be off by one residue; source: HEK/293T, transiently transfected, secreted, in serum-free conditioned medium; not shown: hGH (human growth hormone), N-terminal, kept

[3] = biological target: T2, hGH fusion with PLVAP ECD from amino acid 104 to the C terminus (fusion protein A of Fig. 9) (Mus musculus, UniProt Q91VC4); assay: as above; conditions: one partner purified
T2 construct: PLVAP, mouse; N terminus at amino acid 104 (TRREME...), extends to the C terminus of PLVAP; source: HEK/293T, transiently transfected, secreted, in serum-free conditioned medium; not shown: hGH (human growth hormone), N-terminal, kept

[4] = biological target: T3, hGH fusion with PLVAP ECD, N-terminal deletion C (fusion protein C of Fig. 9) (Mus musculus, UniProt Q91VC4); assay: as above; conditions: one partner purified
T3 construct: PLVAP, mouse; extends to the C terminus of PLVAP; Limit may be off by one residue; source: HEK/293T, transiently transfected, secreted, in serum-free conditioned medium; not shown: hGH (human growth hormone), N-terminal, kept

[5] = biological target: T4, AP–PLVAP CC2, alkaline phosphatase fused to PLVAP CC2 (Mus musculus, UniProt Q91VC4); assay: ELISA; MECA-32/hIgG immobilised on protein A-coated 96-well plates (4 °C overnight); conditioned media with AP-PLVAP CC2, 25 °C, 1 h; 10 mM HEPES pH 7.5, 0.15 M NaCl, 0.05% Tween-20 washes; colorimetric AP reaction (BluePhos); conditions: one partner purified
T4 construct: PLVAP, mouse, CC2; The plasmid codes for AP followed by a Myc tag and an 8xHis tag; source: HEK/293T, in conditioned media

[6] = biological target: the molecule itself; assay: SDS-PAGE, reducing vs nonreducing; purified fragments from E. coli SHuffle after 3C cleavage; electrophoretic mobilities in reducing and nonreducing gels; shows disulfide-linked dimers

B1: PLVAP CC1, residues 141 to 229 (domain or fragment, mouse, UniProt Q91VC4 141-229, looked up)
chain: QCQEQLKEVNKTCEALLFKLGEKVKTLEMEVAKEKAVCSKDKESLLAGKRQTEEQLEACGKARERQQQEQQVTEENLRKVQSLCIPLDQ
notes: PLVAP, mouse, coiled-coil segment CC1, residues 141 to 229 (89 amino acids); Parallel dimer with five interchain disulfide bonds; also called pPMS1170; source: E. coli SHuffle T7, purified (IMAC, 3C protease cleavage, IMAC, SEC); not shown: thioredoxin (E. coli TrxA), N-terminal, cleaved; 8xHis, N-terminal, cleaved
[1]
  stoichiometry N: 2

B2: MECA-32, anti-PLVAP monoclonal antibody (antibody, V domains shown)
VH: EVQLVESGGGLVQPGRSMKLSCAASGFTFSDYYMAWVRQAPMKGLKWVASISYEGNKTYYGDSVKGRFTISRDNAKSILYLQMNSLKSEDTATYYCARQSYSSYIFDYWGQGVMVTVSS
VL: DIQMTQTPSSMSASLGERVTISCGTSQGVNIFLNWYQQKPDGTIKPLIFFTSHLQSGVPSRFSGSGSGTAYSLTISSLEPEDFAVYYCQQYDSSPPTFGGGTKLYLK
notes: heavy-chain constant region of the hybridoma antibody; light-chain constant region of the hybridoma antibody; the blots used the bought antibody of the same clone name; also called rat mAb MECA-32 (553849; BD Biosciences); source: bought: BD Biosciences (553849)
[2]
  binding result: binds
[3]
  binding result: binds
[4]
  binding result: binds

B3: MECA-32/hIgG, engineered MECA-32 antibody with human constant regions (antibody, V domains shown)
VH: B2 VH
VL: B2 VL
notes: mature VH of MECA-32; human heavy-chain IgG constant region (CH1, CH2 and CH3) with an HRV 3C protease cleavage site between CH1 and CH2; mature VL of MECA-32; human light-chain constant region (CL); Chimeric IgG; held on protein A-coated wells in the assay; also called MECA-32/IgG; engineered MECA-32 Ab; source: HEK/293T, cotransfected heavy- and light-chain plasmids, purified from conditioned …
[5]
  binding result: binds

B4: PLVAP extracellular domain (full-length ECD), residues 52 to 438 (domain or fragment, mouse, UniProt Q91VC4 52-438, looked up)
chain: HATTESSLRATEIRADSLYSQVVGLSASQANLSKQLNISLLVKETVMQQLLTTRREMERINASFRQCQGDLITYINYNRFIAAIILSEKQCQEQLKEVNKTCEALLFKLGEKVKTLEMEVAKEKAVCSKDKESLLAGKRQTEEQLEACGKARERQQQEQQVTEENLRKVQSLCIPLDQEKFQADVLSAWRDSLIYRTLETLPYHYQLMPEYASLRRTCESLPGIMTTKIEELARGLRAGIERVTRENAELRRQKLELERAAQAAQEARARAGTEAQARETQLRAECARQTQLALEEKAALRAQRDNLERELEARKRELEQLRTEVDVRISALDTCVKAKSLPAVPPRVSGPPPNPPPIDPASLEEFKKRILESQRLPVVNPAAQPSG
notes: plasmalemma vesicle-associated protein (PLVAP), mouse, extracellular domain, residues 52 to 438; also called PLVAP ECD; pXG61; source: E. coli SHuffle T7, purified (IMAC, 3C protease cleavage, IMAC, SEC); not shown: thioredoxin (E. coli TrxA), N-terminal, cleaved; 8xHis, N-terminal, cleaved
[6]
  binding result: binds

B5: PLVAP CC2, residues 270 to 395 (domain or fragment, mouse, UniProt Q91VC4 270-395, looked up)
chain: ESLPGIMTTKIEELARGLRAGIERVTRENAELRRQKLELERAAQAAQEARARAGTEAQARETQLRAECARQTQLALEEKAALRAQRDNLERELEARKRELEQLRTEVDVRISALDTCVKAKSLPAV
notes: PLVAP, mouse, coiled-coil segment CC2, residues 270 to 395; also called pXG52; source: E. coli SHuffle T7, purified (IMAC, 3C protease cleavage, IMAC, SEC); not shown: thioredoxin (E. coli TrxA), N-terminal, cleaved; 8xHis, N-terminal, cleaved
[6]
  binding result: binds
